Measured values: US20240239894A1, “THERAPEUTIC BINDING MOLECULES” (MedImmune Limited, priority 2020, published 2024)

What was measured:
[1] = target: human B7-H4 on cells (human) (UniProt Q7Z7D3); assay: flow cytometry, AF647-labelled antibody at 78 ng/ml, SKBR-3 cells
[2] = target: human B7-H4 on cells (human) (UniProt Q7Z7D3); assay: flow cytometry, AF647-labelled antibody at 312 ng/ml, SKBR-3 cells

Chain of human B7-H4 on cells (human) (Q7Z7D3 25-282 limits assumed): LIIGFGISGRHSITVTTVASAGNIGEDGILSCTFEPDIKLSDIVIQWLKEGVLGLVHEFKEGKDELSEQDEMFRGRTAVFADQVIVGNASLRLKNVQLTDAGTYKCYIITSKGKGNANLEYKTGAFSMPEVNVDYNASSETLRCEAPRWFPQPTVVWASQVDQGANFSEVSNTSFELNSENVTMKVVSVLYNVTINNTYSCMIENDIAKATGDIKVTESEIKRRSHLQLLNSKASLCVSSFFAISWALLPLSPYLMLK

Geometric Mean : Comp-APC-A [1]: 101
Geometric Mean : Comp-APC-A [2]: 121
Substance: R347-maia human IgG1 (isotype control) (antibody)
